Experimental findings from the Human Domainome abundance scans (Beltran et al. 2025) are described below.

To fix the notation:
B1: Tumor protein p73, residues 487 to 549; numbered along this chain, O15350 (parent)
chain: YHADPSLVSFLTGLGCPNCIEYFTSQGLQSIYHLQNLTIEDLGALKIPEQYRMTIWRGLQDLK

± gives the uncertainty stated by the source.

Variants of B1 are the subject of this series. Nature of the series: abundance fitness (aPCA) (normalised: wild type 0, dead -1); higher = more abundant; growth selection in yeast, the domain comes from the species named. The settings on record: Homo sapiens.
For the variant YHADPSLVSFLTGLGCPNCIEYFTSQGLQHIYHLQNLTIEDLGALKIPEQYRMTIWRGLQDLK [S30H], the abundance fitness is -0.027 ± 0.065. Next, YHADPSLVSFLTGLGCPNCIEYFTSQGLQCIYHLQNLTIEDLGALKIPEQYRMTIWRGLQDLK [S30C]: -0.062 ± 0.04; YHADPSLVSFLTGLGCPNCIEYFTSQGLQYIYHLQNLTIEDLGALKIPEQYRMTIWRGLQDLK [S30Y]: -0.016 ± 0.051. The result for YHADPSLVSFLTGLGCPNCIEYFTSQGLQRIYHLQNLTIEDLGALKIPEQYRMTIWRGLQDLK [S30R] reads -0.043 ± 0.025. In the case of YHADPSLVSFLTGLGCPNCIEYFTSQGLQWIYHLQNLTIEDLGALKIPEQYRMTIWRGLQDLK [S30W], the abundance fitness is -0.817 ± 0.085. Regarding YHADPSLVSFLTGLGCPNCIEYFTSQGLQMIYHLQNLTIEDLGALKIPEQYRMTIWRGLQDLK [S30M], the abundance fitness is -0.094 ± 0.22.

For YHADPSLVSFLTGLGCPNCIEYFTSQGLQTIYHLQNLTIEDLGALKIPEQYRMTIWRGLQDLK [S30T], the abundance fitness was 0.085 ± 0.073.

With YHADPSLVSFLTGLGCPNCIEYFTSQGLQNIYHLQNLTIEDLGALKIPEQYRMTIWRGLQDLK [S30N], the abundance fitness stood at 0.025 ± 0.055. As to YHADPSLVSFLTGLGCPNCIEYFTSQGLQKIYHLQNLTIEDLGALKIPEQYRMTIWRGLQDLK [S30K], the abundance fitness was -0.03 ± 0.083.

In the case of YHADPSLVSFLTGLGCPNCIEYFTSQGLQFIYHLQNLTIEDLGALKIPEQYRMTIWRGLQDLK [S30F], the abundance fitness was -0.423 ± 0.079. With YHADPSLVSFLTGLGCPNCIEYFTSQGLQQIYHLQNLTIEDLGALKIPEQYRMTIWRGLQDLK [S30Q], the abundance fitness came to 0.115 ± 0.041. Consider YHADPSLVSFLTGLGCPNCIEYFTSQGLQIIYHLQNLTIEDLGALKIPEQYRMTIWRGLQDLK [S30I], for which the abundance fitness was -1.01 ± 0.27. With YHADPSLVSFLTGLGCPNCIEYFTSQGLQPIYHLQNLTIEDLGALKIPEQYRMTIWRGLQDLK [S30P], the abundance fitness was -0.629 ± 0.094. Next, YHADPSLVSFLTGLGCPNCIEYFTSQGLQVIYHLQNLTIEDLGALKIPEQYRMTIWRGLQDLK [S30V]: -0.521 ± 0.05; YHADPSLVSFLTGLGCPNCIEYFTSQGLQGIYHLQNLTIEDLGALKIPEQYRMTIWRGLQDLK [S30G]: -0.086 ± 0.03.

Turning to YHADPSLVSFLTGLGCPNCIEYFTSQLLQSIYHLQNLTIEDLGALKIPEQYRMTIWRGLQDLK [G27L], the abundance fitness is -1.02 ± 0.1. As to YHADPSLVSFLTGLGCPNCIEYFTSQSLQSIYHLQNLTIEDLGALKIPEQYRMTIWRGLQDLK [G27S], the abundance fitness was -0.07 ± 0.035.

Consider YHADPSLVSFLTGLGCPNCIEYFTSQMLQSIYHLQNLTIEDLGALKIPEQYRMTIWRGLQDLK [G27M], for which the abundance fitness is -0.716 ± 0.069. On to YHADPSLVSFLTGLGCPNCIEYFTSQVLQSIYHLQNLTIEDLGALKIPEQYRMTIWRGLQDLK [G27V], for which the abundance fitness is -0.61 ± 0.084. Regarding YHADPSLVSFLTGLGCPNCIEYFTSQHLQSIYHLQNLTIEDLGALKIPEQYRMTIWRGLQDLK [G27H], the abundance fitness is -0.004 ± 0.053. For the variant YHADPSLVSFLTGLGCPNCIEYFTSQALQSIYHLQNLTIEDLGALKIPEQYRMTIWRGLQDLK [G27A], the abundance fitness is -0.304 ± 0.075. As to YHADPSLVSFLTGLGCPNCIEYFTSQRLQSIYHLQNLTIEDLGALKIPEQYRMTIWRGLQDLK [G27R], the abundance fitness was -0.024 ± 0.025. The result for YHADPSLVSFLTGLGCPNCIEYFTSQKLQSIYHLQNLTIEDLGALKIPEQYRMTIWRGLQDLK [G27K] reads -0.089 ± 0.043. On to YHADPSLVSFLTGLGCPNCIEYFTSQCLQSIYHLQNLTIEDLGALKIPEQYRMTIWRGLQDLK [G27C], for which the abundance fitness is -0.448 ± 0.059. Next, YHADPSLVSFLTGLGCPNCIEYFTSQDLQSIYHLQNLTIEDLGALKIPEQYRMTIWRGLQDLK [G27D]: 0.06 ± 0.044.

Consider YHADPSLVSFLTGLGCPNCIEYFTSQTLQSIYHLQNLTIEDLGALKIPEQYRMTIWRGLQDLK [G27T], for which the abundance fitness is -0.172 ± 0.075. For YHADPSLVSFLTGLGCPNCIEYFTSQQLQSIYHLQNLTIEDLGALKIPEQYRMTIWRGLQDLK [G27Q], the abundance fitness was -0.05 ± 0.051. The result for YHADPSLVSFLTGLGCPNCIEYFTSQPLQSIYHLQNLTIEDLGALKIPEQYRMTIWRGLQDLK [G27P] reads -0.367 ± 0.065; that for YHADPSLVSFLTGLGCPNCIEYFTSQFLQSIYHLQNLTIEDLGALKIPEQYRMTIWRGLQDLK [G27F], -1 ± 0.22. With YHADPSLVSFLTGLGCPNCIEYFTSQNLQSIYHLQNLTIEDLGALKIPEQYRMTIWRGLQDLK [G27N], the abundance fitness was -0.055 ± 0.22.

With YHADPSLVSFLTGLGCPNCIEYFTSQGHQSIYHLQNLTIEDLGALKIPEQYRMTIWRGLQDLK [L28H], the abundance fitness was determined as 0.083 ± 0.13. As for YHADPSLVSFLTGLGCPNCIEYFTSQGCQSIYHLQNLTIEDLGALKIPEQYRMTIWRGLQDLK [L28C], the abundance fitness is 0.021 ± 0.044. The result for YHADPSLVSFLTGLGCPNCIEYFTSQGEQSIYHLQNLTIEDLGALKIPEQYRMTIWRGLQDLK [L28E] reads -0.177 ± 0.061.

Take YHADPSLVSFLTGLGCPNCIEYFTSQGDQSIYHLQNLTIEDLGALKIPEQYRMTIWRGLQDLK [L28D]: the abundance fitness is -0.261 ± 0.081. The result for YHADPSLVSFLTGLGCPNCIEYFTSQGYQSIYHLQNLTIEDLGALKIPEQYRMTIWRGLQDLK [L28Y] reads -0.058 ± 0.051; that for YHADPSLVSFLTGLGCPNCIEYFTSQGMQSIYHLQNLTIEDLGALKIPEQYRMTIWRGLQDLK [L28M], 0.042 ± 0.051; that for YHADPSLVSFLTGLGCPNCIEYFTSQGFQSIYHLQNLTIEDLGALKIPEQYRMTIWRGLQDLK [L28F], 0.175 ± 0.077. The result for YHADPSLVSFLTGLGCPNCIEYFTSQGKQSIYHLQNLTIEDLGALKIPEQYRMTIWRGLQDLK [L28K] reads 0.005 ± 0.043; that for YHADPSLVSFLTGLGCPNCIEYFTSQGRQSIYHLQNLTIEDLGALKIPEQYRMTIWRGLQDLK [L28R], -0.05 ± 0.027; that for YHADPSLVSFLTGLGCPNCIEYFTSQGTQSIYHLQNLTIEDLGALKIPEQYRMTIWRGLQDLK [L28T], -0.186 ± 0.046. For the variant YHADPSLVSFLTGLGCPNCIEYFTSQGSQSIYHLQNLTIEDLGALKIPEQYRMTIWRGLQDLK [L28S], the abundance fitness is -0.079 ± 0.035. Next, YHADPSLVSFLTGLGCPNCIEYFTSQGWQSIYHLQNLTIEDLGALKIPEQYRMTIWRGLQDLK [L28W]: -0.16 ± 0.039.
